Paper PMC13013135, “[^99mTc]Tc-PSMA-HSG for PSMA-targeted Hybrid Surgical Guidance: a new addition to the PSMA-I&S/I&T family” (European Journal of Nuclear Medicine and Molecular Imaging, 2025)
Where “and” joins values, the source holds several entries; their conditions need not be identical. Equal entries are not always repeated. Where two headings read alike, the source gives them in different places.

Columns and labels:
[1] = molecular target: human serum albumin (HSA) (Homo sapiens, UniProt P02768); assay: Plasma protein binding (B50), ultrafiltration, HSA; assay type: in vitro ADME
Experimental: (§1) A detailed experimental procedure is provided in the Supplementary Material. […] Briefly, protein solutions (maximum concentration: […] Samples were briefly vortexed and incubated for 30 min at 37 °C. […] The filter units were then removed from the centrifugal tubes and washed twice with 300 µL PBS to recover the protein fraction. The activity in the filtrate, filter and protein fraction were then quantified using a γ-counter. […] The percentages of radioligand bound to the respective proteins are represented as means ± standard deviation (SD) of three independent experiments.

[2] = Lipophilicity, modified shake-flask method; assay type: physicochemical
Experimental: The lipophilicity of [^99mTc]Tc-PSMA-HSG was determined via a modified shake-flask method as described.

mouse serum = assay: Plasma protein binding (B50), ultrafiltration, mouse serum; assay type: in vitro ADME
Experimental: as §1

[3] = system: LNCaP xenograft bearing NSG mice; assay: Small animal SPECT/CT with 2-PMPA blocking; assay type: in vivo, mouse; conditions: 1 nmol peptide, 1 µmol 2-PMPA, SPECT/CT 2–4 h p.i.
Experimental: SPECT/CT images were acquired using an Albira Si PET/SPECT/CT (Bruker Biospin Corporation, Woodbridge, CT, USA) instrument. Mice were injected with the respective ^99mTc-labeled tracer (24–34 MBq; the injected peptide amount was kept constant at 1 nmol/animal), with (blocking) or without (control) coinjection of 226 µg (1 µmol) 2-PMPA. […] For SPECT imaging, static acquisitions of 2 h (accumulation of 1–2 × 10^6 events) were acquired with the following parameters: photopeak at 140 keV ± 30%, axial FOV 82.5 mm using a single pinhole collimator. For reconstruction, an ordered subset expectation-maximization algorithm (OSEM) with two iterations was used, and scatter correction was applied. For CT, the following parameters were used: 400 µA intensity and 35 kV voltage, 600 projections. Images were reconstructed using a filtered back-projection (FBP) algorithm with de-ringing correction. Fused representative SPECT/CT images were acquired using the PMOD software (PMOD technologies, version 3.709, Zurich, Switzerland).

PSMA = PSMA (Homo sapiens, UniProt Q04609); assay type: in vivo; design: Five patients with a diagnosis of initial (n = 4) or biochemical recurrence of (n = 1) histologically proven prostate cancer; from tissue; host or cells: prostate cancer patients: primary tumour, lymph nodes, resected tissue sections
Source text: For all patients, radioguided surgery had been recommended by the local multidisciplinary tumor board. […] Attenuation maps were generated on the basis of low-dose CT. For a detailed protocol of imaging parameters and the dosimetry protocol please refer to the Supplementary Material. […] A scatter window ranging from 114 to 126 keV was additionally acquired for planar and SPECT imaging. For SPECT, the imaging field of view was from neck to upper thighs. At each bed position, 60 views were acquired, with a duration of 8 s each. Subsequently, images were reconstructed using an ordered subset expectation maximisation (OSEM) algorithm (2 iterations and 10 subsets) with a Butterworth filter (fc = 0.48, n = 10). Scatter and attenuation correction was applied. For whole-body planar imaging, a scan speed of 30 cm/min was employed until 60 min post-injection, after which the acquisition speed was moderated to 12 cm/min for any further data collection.

human serum = assay: Plasma protein binding (B50), ultrafiltration, human serum; assay type: in vitro ADME
Experimental: as §1

[4] = human, in vivo
Experimental: [^99mTc]Tc-PSMA-HSG scans were performed using a GE Discovery NM/CT 670 Pro (GE Healthcare, Milwaukee, USA; n = 4) or Siemens Symbia T2 (Siemens Healthineers, Erlangen, Germany; n = 1) system. For dosimetry, planar dynamic whole body scans were performed at 5 min and 1 h after injection with a bed speed of 30 cm/min; and at 3–4 h and 20 h after injection with a speed of 12 cm/min. At 3–4 h and 20 h after injection additional SPECT/CT imaging was acquired. Attenuation maps were generated on the basis of low-dose CT. For a detailed protocol of imaging parameters and the dosimetry protocol please refer to the Supplementary Material.
The planar and SPECT/CT images per time point were processed using syngo.via (Siemens Healthineers, Erlangen, Germany). Organs were segmented on the accompanying CT of the SPECT/CT of each imaging time point to avoid errors due to misalignment during image registration. Segmented organs included gallbladder, muscle, heart, kidneys, liver, lungs, pancreas, spleen, stomach, and urinary bladder on the SPECT/CT. For bone marrow dosimetry, spherical volumes of interest (VOIs) were placed in lumbar vertebrae L2 to L4 [8]. Salivary glands and their background were manually segmented on the anterior view of the planar whole-body scans. Region-wise image statistics were extracted into spreadsheets including administered activity and the time interval between administration and imaging start.
Count statistics were converted into units of Becquerel by using the decay-corrected reference activity source that was within the field of view (FOV) of each imaging acquisition. Percentage injected activities per time were entered into MIRDfit v1.01 for fitting the time-activity data. The trapezoidal method with zero activity at time zero and physical decay extrapolation after the last time point was used for the data with only two SPECT acquisitions and monoexponential fitting was used for the three SPECT acquisitions and if the fit R² was greater than 0.97. The salivary glands with available data from four planar images were fitted biexponentially if R² was greater than 0.97. The bladder was modelled in MIRDfit assuming effective half-life, two time points and a 3 h voiding interval. The resulting time integrated activity coefficients (TIACs, unit of hours) were entered in MIRDcalc v1.22 [10] for dosimetry calculations and patient-individual organ masses for kidneys, liver, pancreas, spleen and estimate for red marrow were used for S-value adjustments.

[5] = exploratory cohort, five patients
[6] = subjects with newly diagnosed PCa

PSMA, sequence (Q04609 whole entry): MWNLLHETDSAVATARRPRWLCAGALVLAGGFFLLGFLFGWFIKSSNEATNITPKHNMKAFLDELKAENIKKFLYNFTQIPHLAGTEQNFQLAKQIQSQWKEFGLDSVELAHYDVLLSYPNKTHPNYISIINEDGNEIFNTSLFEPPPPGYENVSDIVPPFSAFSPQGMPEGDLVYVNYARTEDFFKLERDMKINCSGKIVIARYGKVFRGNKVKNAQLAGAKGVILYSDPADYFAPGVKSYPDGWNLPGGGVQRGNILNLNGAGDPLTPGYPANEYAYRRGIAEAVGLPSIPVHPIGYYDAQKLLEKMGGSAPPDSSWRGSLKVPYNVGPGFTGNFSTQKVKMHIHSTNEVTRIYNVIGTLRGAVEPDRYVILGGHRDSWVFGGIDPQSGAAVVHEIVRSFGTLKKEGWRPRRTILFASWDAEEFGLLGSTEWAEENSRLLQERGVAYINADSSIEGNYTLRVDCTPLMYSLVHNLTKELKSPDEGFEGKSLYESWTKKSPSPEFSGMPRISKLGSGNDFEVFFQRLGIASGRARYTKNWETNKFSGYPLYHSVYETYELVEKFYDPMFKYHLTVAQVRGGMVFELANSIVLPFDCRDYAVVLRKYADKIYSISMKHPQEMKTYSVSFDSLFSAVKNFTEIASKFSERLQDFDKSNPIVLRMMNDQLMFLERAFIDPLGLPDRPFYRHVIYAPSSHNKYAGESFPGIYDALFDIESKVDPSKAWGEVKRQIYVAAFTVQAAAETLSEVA
human serum albumin (HSA), sequence (P02768 25-609): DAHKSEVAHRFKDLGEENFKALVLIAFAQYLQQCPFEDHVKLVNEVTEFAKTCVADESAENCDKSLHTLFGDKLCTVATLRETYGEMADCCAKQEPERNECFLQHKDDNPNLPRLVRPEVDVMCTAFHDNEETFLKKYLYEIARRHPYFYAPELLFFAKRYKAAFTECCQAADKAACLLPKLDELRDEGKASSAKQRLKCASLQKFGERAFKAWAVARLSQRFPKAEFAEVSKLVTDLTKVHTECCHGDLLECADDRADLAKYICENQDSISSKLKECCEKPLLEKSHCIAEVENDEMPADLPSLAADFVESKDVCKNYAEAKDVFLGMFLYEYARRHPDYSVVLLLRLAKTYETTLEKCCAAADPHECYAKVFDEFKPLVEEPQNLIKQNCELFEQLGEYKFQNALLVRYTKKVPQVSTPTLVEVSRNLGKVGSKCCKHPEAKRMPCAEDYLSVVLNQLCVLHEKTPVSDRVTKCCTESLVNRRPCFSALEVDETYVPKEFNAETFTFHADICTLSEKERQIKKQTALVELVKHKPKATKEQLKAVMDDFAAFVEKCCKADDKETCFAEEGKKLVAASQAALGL

Question: With `C[N+]1=C(/C=C/C=C/C=C2/N(CCCCCC(=O)NCCCC[C@@H](NC(=O)[C@@H](CO)NC(=O)[C@@H](CO)NC(=O)[C@@H](CO)NC(=O)CS)C(=O)N[C@H](Cc3ccc(O)cc3)C(=O)N[C@H](Cc3ccc4ccccc4c3)C(=O)N[C@H](CCCCNC(=O)CCCCCCC(=O)NCCCC[C@H](NC(=O)N[C@@H](CCC(=O)O)C(=O)O)C(=O)O)C(=O)O)c3ccc(S(=O)(=O)[O-])cc3C2(C)C)C(C)(C)c2cc(S(=O)(=O)O)ccc21` [[^99mTc]Tc-PSMA-HSG, metal not drawn] as the molecule, how does the “B50 HSA” value [1] read?
Answer: 273 ± 36

Question: What about the logD [2] of the same molecule?
Answer: -2.94

Question: What about the “B50 MS” value (mouse serum) of the same molecule?
Answer: 142 ± 22

Question: What about the “PSMA-specificity of tumor uptake, coinjection of 2-PMPA” value [3] of the same molecule?
Answer: successfully blocked tumor accumulation

Question: What about the scintigraphy findings (PSMA; Patient #1, 53 µg) of the same molecule?
Answer: Two positive LN in the right and left external iliac region

Question: And the scintigraphy findings (PSMA; Patient #2, 53 µg)?
Answer: Moderate tracer uptake of the primary No positive LN

Question: What about the scintigraphy findings (PSMA; Patient #3, 53 µg) of the same molecule?
Answer: Moderate tracer uptake of the primary No positive LN

Question: What about the scintigraphy findings (PSMA; Patient #4, 350 µg) of the same molecule?
Answer: No discernible tracer uptake of the primary No discernible tracer uptake in the right iliac LN

Question: What about the scintigraphy findings (PSMA; Patient #5, 250 µg) of the same molecule?
Answer: Moderate tracer uptake of the primary No positive LN

Question: And the “negative predictive value (NPV) of SPECT/CT” value (PSMA; [5])?
Answer: 94%

Question: And the “positive predictive value (PPV) of SPECT/CT” value (PSMA; [5])?
Answer: 100%

Question: What about the “sensitivity of SPECT/CT” value (PSMA; [5]) of the same molecule?
Answer: 33%

Question: And the “specificity of SPECT/CT” value (PSMA; [5])?
Answer: 100%

Question: What about the “clearance in patients, visual image analysis” value (PSMA; human, in vivo) of the same molecule?
Answer: swift activity clearance from blood/background via rapid renal excretion

Question: And the “intestinal accumulation in patients” value (PSMA; human, in vivo)?
Answer: Virtually no intestinal accumulation

Question: And the “PET-suspicious lymph nodes positive in scintigraphy” value (PSMA; [6])?
Answer: 2/10

Question: And the “primary tumor delineated / visualized” value (PSMA; [6])?
Answer: 3 out of 4 and 3/4

Question: And the “B50 HS” value (human serum)?
Answer: 220 ± 35

Question: What about the “Absorbed dose coefficient of salivary glands from planar images” value [4] of the same molecule?
Answer: 0.007 ± 0.004 mGy/MBq

Question: What about the “Absorbed dose coefficient of salivary glands from planar images, max” value [4] of the same molecule?
Answer: 0.013 mGy/MBq

Question: And the “Absorbed dose coefficient of salivary glands from planar images, min” value [4]?
Answer: 0.005 mGy/MBq

Question: What about the “Absorbed dose, Brain” value [4] of the same molecule?
Answer: 0.000 mGy/MBq

Question: What about the “Absorbed dose, ET1 airway basal cells” value [4] of the same molecule?
Answer: 0.000 mGy/MBq

Question: And the “Absorbed dose, Eye lens” value [4]?
Answer: 0.000 mGy/MBq

Question: What about the “Absorbed dose, Lymph nodes - extrathoracic” value [4] of the same molecule?
Answer: 0.001 mGy/MBq

Question: What about the “Absorbed dose, Tonsils” value [4] of the same molecule?
Answer: 0.001 mGy/MBq

Question: And the “Organ TIAC, Bone marrow - red (active)” value [4]?
Answer: 0.412 h

Question: What about the “Organ TIAC, Gallbladder content” value [4] of the same molecule?
Answer: 0.015 h

Question: What about the “Organ TIAC, Heart content” value [4] of the same molecule?
Answer: 0.164 h

Question: And the “Organ TIAC, Lungs” value [4]?
Answer: 0.360 h

Question: What about the “Organ TIAC, Muscle” value [4] of the same molecule?
Answer: 1.230 h

Question: What about the “Organ TIAC, Pancreas” value [4] of the same molecule?
Answer: 0.035 h

Question: What about the “Organ TIAC, Spleen” value [4] of the same molecule?
Answer: 0.096 h

Question: What about the “Organ TIAC, Stomach content” value [4] of the same molecule?
Answer: 0.090 h

Question: What about the “effective dose for a typically injected activity” value [4] of the same molecule?
Answer: 7.9 mSv
